Experimental data from patent publication US20170165365A1 (SYMPHOGEN A S, published 2017).
One block for each binder: values may come before it.

Columns and labels:
[1] = target: cynomolgus HER2 antigen (cynomolgus monkey); experiment: SPR (ProteOn XPR36), IgG captured by anti-human Fc, soluble monovalent antigen, 1:1 fit
[2] = target: T1, mouse EGFR antigen (mouse, UniProt Q01279 25-647, limits assumed); experiment: ELISA on coated antigen
T1 construct: In-house antigen coated for ELISA; also called mouse antigen; murine EGFR
Procedure: (§1) Antibody-antigen binding was measured by ELISA with coated antigens. Human antigens were obtained from Sino Biologicals. All other antigens were produced in-house by transient expression in CHO or HEK293 cells. Chimeric and humanized antibodies, as well as an isotype control antibody, were incubated with the coated antigens at different concentrations. After wash, bound antibodies were detected by HRP-(horse radish peroxidase)-conjugated secondary antibodies.

[3] = target: T2, human HER3 antigen (Sino Biologicals) (human, UniProt P21860 20-643); experiment: ELISA on coated antigen
T2 construct: Bought soluble antigen; also called human antigen
Procedure: as §1

[4] = target: T3, human HER4 antigen (human, UniProt Q15303 26-649, limits assumed); experiment: ELISA on coated antigen
T3 construct: Antigen coated for ELISA
T3 sequence (looked up): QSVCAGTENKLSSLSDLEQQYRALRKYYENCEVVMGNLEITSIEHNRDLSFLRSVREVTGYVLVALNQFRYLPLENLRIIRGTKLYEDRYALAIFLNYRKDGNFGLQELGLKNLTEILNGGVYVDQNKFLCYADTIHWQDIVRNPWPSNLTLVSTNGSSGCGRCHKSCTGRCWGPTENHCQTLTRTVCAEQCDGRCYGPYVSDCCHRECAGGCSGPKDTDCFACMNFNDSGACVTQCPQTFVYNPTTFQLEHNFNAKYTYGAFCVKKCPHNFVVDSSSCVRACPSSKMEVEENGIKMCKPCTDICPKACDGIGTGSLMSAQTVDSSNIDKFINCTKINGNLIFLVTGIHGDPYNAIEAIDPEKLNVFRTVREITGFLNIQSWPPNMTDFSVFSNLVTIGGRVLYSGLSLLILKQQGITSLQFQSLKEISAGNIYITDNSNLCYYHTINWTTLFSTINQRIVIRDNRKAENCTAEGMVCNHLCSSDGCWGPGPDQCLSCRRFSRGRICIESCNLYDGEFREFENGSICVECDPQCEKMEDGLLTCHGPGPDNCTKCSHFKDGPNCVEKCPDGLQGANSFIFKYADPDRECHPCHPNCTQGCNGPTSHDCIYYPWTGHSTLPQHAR
Procedure: as §1

[5] = target: T4, mouse HER3 antigen (mouse, UniProt Q61526 20-641, limits assumed); experiment: ELISA on coated antigen
T4 construct: In-house antigen coated for ELISA; also called mouse antigen; murine HER3
T4 sequence (Q61526 20-641 limits assumed): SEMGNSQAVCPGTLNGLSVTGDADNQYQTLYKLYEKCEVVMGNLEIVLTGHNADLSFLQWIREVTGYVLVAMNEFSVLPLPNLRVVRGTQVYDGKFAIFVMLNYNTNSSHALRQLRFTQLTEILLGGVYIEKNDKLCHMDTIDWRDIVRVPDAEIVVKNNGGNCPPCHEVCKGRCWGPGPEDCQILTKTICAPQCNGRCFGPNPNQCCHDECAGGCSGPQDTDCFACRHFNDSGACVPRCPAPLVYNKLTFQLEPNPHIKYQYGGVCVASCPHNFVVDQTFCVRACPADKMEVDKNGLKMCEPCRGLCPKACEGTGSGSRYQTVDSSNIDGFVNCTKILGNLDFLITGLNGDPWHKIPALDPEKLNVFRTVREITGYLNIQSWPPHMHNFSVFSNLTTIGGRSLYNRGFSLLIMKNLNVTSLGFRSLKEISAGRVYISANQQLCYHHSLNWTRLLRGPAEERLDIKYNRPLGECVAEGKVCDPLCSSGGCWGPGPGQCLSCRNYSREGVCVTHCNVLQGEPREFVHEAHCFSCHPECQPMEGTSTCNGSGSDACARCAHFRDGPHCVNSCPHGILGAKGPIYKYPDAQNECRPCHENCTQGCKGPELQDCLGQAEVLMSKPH
Procedure: as §1

[6] = target: T5, cynomolgus HER3 antigen (cynomolgus monkey, UniProt G7PIG5 20-643); experiment: ELISA on coated antigen
T5 construct: In-house antigen; also called cynomolgus antigen
T5 sequence (G7PIG5 entry or part of it): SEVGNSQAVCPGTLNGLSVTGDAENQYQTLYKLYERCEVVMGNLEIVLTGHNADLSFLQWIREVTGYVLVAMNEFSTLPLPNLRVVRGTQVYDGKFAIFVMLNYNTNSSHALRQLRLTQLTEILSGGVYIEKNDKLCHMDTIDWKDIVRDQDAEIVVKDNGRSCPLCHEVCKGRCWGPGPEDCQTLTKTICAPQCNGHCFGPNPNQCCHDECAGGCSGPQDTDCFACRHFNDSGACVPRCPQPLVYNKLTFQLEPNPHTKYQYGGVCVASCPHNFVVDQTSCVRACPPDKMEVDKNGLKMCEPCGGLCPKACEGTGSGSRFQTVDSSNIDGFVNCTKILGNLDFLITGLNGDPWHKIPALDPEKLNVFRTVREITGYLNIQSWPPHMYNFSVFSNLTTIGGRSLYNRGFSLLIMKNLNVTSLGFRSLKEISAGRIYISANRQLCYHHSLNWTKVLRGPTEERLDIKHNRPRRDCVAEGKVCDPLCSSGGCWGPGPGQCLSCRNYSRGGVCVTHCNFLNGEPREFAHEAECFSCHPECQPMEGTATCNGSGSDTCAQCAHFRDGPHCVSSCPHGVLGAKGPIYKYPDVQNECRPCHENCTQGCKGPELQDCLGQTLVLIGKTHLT
Procedure: as §1

[7] = target: T6, murine HER4 antigen (mouse, UniProt Q61527 26-652, limits assumed); experiment: ELISA on coated antigen
T6 construct: In-house antigen coated for ELISA; also called mouse HER4
T6 sequence (looked up): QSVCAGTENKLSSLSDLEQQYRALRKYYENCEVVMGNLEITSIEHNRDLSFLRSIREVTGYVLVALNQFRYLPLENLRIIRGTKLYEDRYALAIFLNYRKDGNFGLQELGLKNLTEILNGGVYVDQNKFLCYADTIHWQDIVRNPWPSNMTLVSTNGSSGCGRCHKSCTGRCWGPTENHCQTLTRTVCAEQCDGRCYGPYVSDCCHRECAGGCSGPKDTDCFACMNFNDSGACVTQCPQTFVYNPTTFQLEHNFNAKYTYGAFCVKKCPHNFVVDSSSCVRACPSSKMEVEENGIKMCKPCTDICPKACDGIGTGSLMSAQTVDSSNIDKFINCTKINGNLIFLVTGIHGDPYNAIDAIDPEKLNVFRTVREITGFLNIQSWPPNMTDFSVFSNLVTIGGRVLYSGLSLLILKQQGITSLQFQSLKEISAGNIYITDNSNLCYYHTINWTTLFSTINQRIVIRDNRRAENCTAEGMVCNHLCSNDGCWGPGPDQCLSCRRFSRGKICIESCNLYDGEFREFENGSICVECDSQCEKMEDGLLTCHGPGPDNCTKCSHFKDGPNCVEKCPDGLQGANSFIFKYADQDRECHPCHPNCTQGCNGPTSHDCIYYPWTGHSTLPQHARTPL
Procedure: as §1

[8] = target: T7, human EGFR antigen (Sino Biologicals) (human, UniProt P00533 25-645); experiment: ELISA on coated antigen
T7 construct: Bought soluble antigen; also called human antigen
Procedure: as §1

[9] = target: T8, cynomolgus EGFR antigen (cynomolgus monkey, UniProt A0A2K5WK39 25-645); experiment: ELISA on coated antigen
T8 construct: In-house antigen; also called cynomolgus antigen
Procedure: as §1

[10] = target: T9, mouse HER2 antigen (mouse, UniProt P70424 23-653, limits assumed); experiment: ELISA on coated antigen
T9 construct: In-house antigen coated for ELISA; also called mouse antigen; murine HER2
T9 sequence (P70424 23-653 limits assumed): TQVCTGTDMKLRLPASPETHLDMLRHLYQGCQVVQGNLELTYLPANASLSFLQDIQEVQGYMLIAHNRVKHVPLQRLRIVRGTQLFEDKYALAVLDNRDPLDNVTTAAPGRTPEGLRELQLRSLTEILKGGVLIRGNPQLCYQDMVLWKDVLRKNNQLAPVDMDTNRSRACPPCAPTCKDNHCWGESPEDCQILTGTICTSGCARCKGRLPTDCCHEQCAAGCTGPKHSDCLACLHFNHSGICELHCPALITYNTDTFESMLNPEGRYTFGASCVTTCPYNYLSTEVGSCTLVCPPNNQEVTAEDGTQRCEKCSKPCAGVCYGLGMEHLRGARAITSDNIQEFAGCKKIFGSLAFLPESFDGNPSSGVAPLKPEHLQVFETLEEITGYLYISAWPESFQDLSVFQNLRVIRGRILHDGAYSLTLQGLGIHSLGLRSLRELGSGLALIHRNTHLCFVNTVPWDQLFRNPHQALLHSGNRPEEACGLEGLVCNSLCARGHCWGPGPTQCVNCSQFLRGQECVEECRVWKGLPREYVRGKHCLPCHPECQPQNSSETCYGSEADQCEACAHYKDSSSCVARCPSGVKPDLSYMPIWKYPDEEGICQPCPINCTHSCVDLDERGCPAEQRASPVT
Procedure: as §1

[11] = target: T10, human HER2 antigen (Sino Biologicals) (human, UniProt P04626 23-652); experiment: SPR (ProteOn XPR36), IgG captured by anti-human Fc, soluble monovalent antigen, 1:1 fit
T10 construct: Bought soluble antigen; also called human antigen
Outline: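 Whole IgG captured on a mouse anti-human Fc surface; monovalent antigen injected at 50 μl/min as threefold serial dilutions from 100 nM stock.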

[12] = target: T7, human EGFR antigen (Sino Biologicals); experiment: ELISA, coated hu EGFR
Procedure: as §1

[13] = target: T5, cynomolgus HER3 antigen; experiment: ELISA, coated cy HER3
Outline: (§2)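 Coated antigen ELISA; non-human antigens transiently expressed in-house (CHO or HEK293). Chimeric/humanized Abs plus isotype control titrated over several concentrations; wash; HRP-conjugated secondary detection.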

[14] = target: T2, human HER3 antigen (Sino Biologicals); experiment: ELISA, coated hu HER3
Outline: as §2

[15] = target: T3, human HER4 antigen; experiment: ELISA, coated hu HER4
Outline: as §2

[16] = target: T9, mouse HER2 antigen; experiment: ELISA, coated mu HER2
Outline: as §2

[17] = target: T6, murine HER4 antigen; experiment: ELISA, coated mu HER4
Outline: as §2

[18] = target: T8, cynomolgus EGFR antigen; experiment: ELISA, coated cy EGFR
Procedure: as §1

[19] = target: T1, mouse EGFR antigen; experiment: ELISA, coated mu EGFR
Outline: as §2

[20] = target: T4, mouse HER3 antigen; experiment: ELISA, coated mu HER3
Outline: as §2

Kd [1]: 2.5 nM | koff [1]: 0.00038 s⁻¹ | kon [1]: 150000 M⁻¹ s⁻¹
B1: humanized anti-HER2 antibody 11249 (antibody, V domains shown)
VH: QVQLVQSGAEVKKPGASVKVSCKASGYTFTSHWMHWVRQAPGQGLEWMGNINPSSGGTNYNEKFKSRVTMTVDTSTSTVYMELSSLRSEDTAVYYCARAYYDFSWFVYWGQGTLVTVSS
VL: DIQMTQSPSSLSASVGDRVTITCRSSQDISNYLNWYQQKPGKAPKLLMYISRLHSGVPSRFSGSGSGTDYTFTISSLQPEDIATYYCQQGNTLPLTFGGGTKVEIK
binding result [2]: no binding (tested: 40 nM antibody (negative: OD<0.1)) | binding result [3]: no binding (tested: 40 nM antibody (negative: OD<0.1)) | binding result [4]: no binding (tested: 40 nM antibody (negative: OD<0.1)) | binding result [5]: no binding (tested: 40 nM antibody (negative: OD<0.1)) | binding result [6]: no binding (tested: 40 nM antibody (negative: OD<0.1)) | binding result [7]: no binding (tested: 40 nM antibody (negative: OD<0.1)) | binding result [8]: no binding (tested: 40 nM antibody (negative: OD<0.1)) | binding result [9]: no binding (tested: 40 nM antibody (negative: OD<0.1)) | binding result [10]: no binding (tested: 40 nM antibody (negative: OD<0.1))

Kd [11]: 1.1 nM | koff [11]: 0.00029 s⁻¹ | kon [11]: 260000 M⁻¹ s⁻¹ | Kd [1]: 3.7 nM | koff [1]: 0.00086 s⁻¹ | kon [1]: 230000 M⁻¹ s⁻¹ | binding result [12]: no binding (tested: 40 nM) | binding result [13]: no binding (tested: 40 nM) | binding result [14]: no binding (tested: 40 nM) | binding result [15]: no binding (tested: 40 nM) | binding result [16]: no binding (tested: 40 nM) | binding result [17]: no binding (tested: 40 nM) | binding result [18]: no binding (tested: 40 nM) | binding result [19]: no binding (tested: 40 nM) | binding result [20]: no binding (tested: 40 nM)
B2: chimeric anti-HER2 antibody 4517 (antibody, V domains shown)
VH: EVQLVESGGDLVKPGGSLKLSCAASGFTFSSYGMSWVRLTPDKRLEWVATISGGGSYTYYPDSVKGRFTISRDIAKSTLYLQMSSLKSEDTAVYYCARKGNYGNYGKLAYWGQGTSVTVS
VL: DIQMTQSPASLSVSVGETVTITCRASENIYSNLAWYQQEQGKSPQLLVYAATNLADGVPSRFSGSGSGTQYSLKINSLQSEDFGSYYCQHFWGTPWTFGGGTKLEIKR
notes: light chain entry is full length
